Laboratory results published in FireProtDB (doi:10.1021/bi702211j).
“And” between values parts separate entries of the source, which are not always exact repeats. Equal entries are not always repeated.

Conditions: Saccharomyces cerevisiae (strain ATCC 204508 / S288c), pH 7.5, 20 °C, Urea, HEPES 10 mM, NaCl 200 mM, reversible: Yes, whole UniProt chain shown

B1: Eukaryotic translation initiation factor 2 subunit alpha wild type, P20459 (protein)
chain: MSTSHCRFYENKYPEIDDIVMVNVQQIAEMGAYVKLLEYDNIEGMILLSELSRRRIRSIQKLIRVGKNDVAVVLRVDKEKGYIDLSKRRVSSEDIIKCEEKYQKSKTVHSILRYCAEKFQIPLEELYKTIAWPLSRKFGHAYEAFKLSIIDETVWEGIEPPSKDVLDELKNYISKRLTPQAVKIRADVEVSCFSYEGIDAIKDALKSAEDMSTEQMQVKVKLVAAPLYVLTTQALDKQKGIEQLESAIEKITEVITKYGGVCNITMPPKAVTATEDAELQALLESKELDNRSDSEDDEDESDDE
CD
  denaturant m value: 0.88 kcal/mol/M and 0.98 kcal/mol/M
  unfolding free energy: 2.45 kcal/mol and 2.95 kcal/mol and 4.61 kcal/mol
Fluorescence
  denaturant m value: 1.84 kcal/mol/M and 2.19 kcal/mol/M
  unfolding free energy: 5.17 kcal/mol and 6.66 kcal/mol and 5.45 kcal/mol
